The values that follow come from article PMC4492089, “FOXM1 binds directly to non-consensus sequences in the human genome”.

Holding throughout (conditions): protein: recombinant; tags: GST; label: 5' 6FAM on top strand; blunt
In data set [1] the target is T1, FOXM1B DBD WT (GST fusion) (UniProt Q08050-2 235-327).
T1 sequence: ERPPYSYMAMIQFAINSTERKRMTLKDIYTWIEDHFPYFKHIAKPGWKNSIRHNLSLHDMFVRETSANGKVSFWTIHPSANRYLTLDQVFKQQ
Kind of data set: fluorescence polarization; FP: 50 mM Tris-HCl pH 7.5, 5 mM MgCl2, 1 mM DTT, 2% glycerol; protein 80 nM-5 uM; temperature not stated. Background: In fluorescence polarisation assays a small probe gives low polarisation when free and higher when bound to something large.

The target of data set [2] is T1, FOXM1B DBD WT (GST fusion). Description: EMSA; FP: 50 mM Tris-HCl pH 7.5, 5 mM MgCl2, 1 mM DTT, 2% glycerol; protein 80 nM-5 uM; temperature not stated. A general note: In EMSA bound probe runs differently from free probe, usually more slowly.
A further data set has as its target T2, FOXM1 DBD S290A (UniProt Q08050 235-327, S290A).
T2 sequence: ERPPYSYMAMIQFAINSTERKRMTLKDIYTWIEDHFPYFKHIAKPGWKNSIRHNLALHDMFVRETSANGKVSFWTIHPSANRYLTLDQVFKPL
Description: fluorescence polarization; up to 5 uM protein; FP: 50 mM Tris-HCl pH 7.5, 5 mM MgCl2, 1 mM DTT, 2% glycerol; protein 80 nM-5 uM; temperature not stated.

The next data set concerns the target T3, FOXM1 DBD R286A (UniProt Q08050 235-327, R286A).
T3 sequence: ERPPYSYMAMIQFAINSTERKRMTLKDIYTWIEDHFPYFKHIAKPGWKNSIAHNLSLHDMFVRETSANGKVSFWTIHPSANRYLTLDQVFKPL
Described as above.

Data set [3] has as its target T4, FOXM1 DBD WT (GST fusion) (UniProt Q08050 235-327).
T4 sequence: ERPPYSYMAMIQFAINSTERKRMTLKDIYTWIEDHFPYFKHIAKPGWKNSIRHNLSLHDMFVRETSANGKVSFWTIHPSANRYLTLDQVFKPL
Description: fluorescence polarization; FP: 50 mM Tris-HCl pH 7.5, 5 mM MgCl2, 1 mM DTT, 2% glycerol; protein 80 nM-5 uM; temperature not stated.

The target in a further data set is T5, FOXM1 DBD H287A (UniProt Q08050 235-327, H287A).
T5 sequence: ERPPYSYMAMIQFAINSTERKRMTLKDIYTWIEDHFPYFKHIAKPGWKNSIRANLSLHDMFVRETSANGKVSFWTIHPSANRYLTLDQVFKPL
The description is as above.

One may read the Kd as a measure of binding affinity in units of concentration.

B1: MYC P2 TATA box 16-mer (dsDNA)
DNA 1: TGAGTATAAAAGCCGG
DNA 2: CCGGCTTTTATACTCA
On to B1, for which the Kd in data set [1] is 177 ± 79 nM.

B2: HP1BP3 16-mer (dsDNA)
DNA 1: CCTCAGCCAATCGGGG
DNA 2: CCCCGATTGGCTGAGG
As for B2, the Kd in data set [1] was determined as 489 ± 233 nM.

B3: FKH consensus 16-mer (dsDNA)
DNA 1: AAACAAACAAACAATC
DNA 2: GATTGTTTGTTTGTTT
Consider B3, for which the Kd was found to be 346 ± 24 nM in data set [2], 1100 ± 20 nM in data set [3], 3040 ± 100 nM in the data set with FOXM1 DBD H287A and 224 ± 45 nM in data set [1]. The binding result with FOXM1 DBD S290A and with FOXM1 DBD R286A was “no binding” each time.

B4: CCNB2 16-mer (dsDNA)
DNA 1: ACGCGGTATTTGAATC
DNA 2: GATTCAAATACCGCGT
Regarding B4, the Kd in data set [1] was 436 ± 147 nM.
